Measured values reported in the supplement of paper PMC9170038.

Tested on: MS2 coat protein
Test: apparent KD of MS2 coat protein; designed switch direction (-1 OFF switch, 1 ON switch): -1; higher = weaker reporter binding
In short: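 Designed RNA switches sharing common flanks were transcribed on Illumina chips by stalled E. coli RNA polymerase. They were titrated with SNAP-549-labelled MS2 coat protein, from 0.7 or 1.5 nM doubling to 3 µM, in Tris-HCl pH 7.5 buffer with KCl, MgCl2, BSA, DTT, tRNA and Tween-20. Titrations ran without input, with 200 uM small-molecule ligand, or with an oligonucleotide input. The apparent KD of each design is the median over its clusters, after curve-fitting of normalised cluster fluorescence.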

[1] = input ligand: microRNA oligo, concentration not stated
[2] = Eterna round: R95, input ligand: microRNA oligo, concentration not stated
[3] = Eterna round: R95, input ligand: FMN 200 uM
[4] = Eterna round: R95, input ligand: none

Sequence | apparent KD of MS2 coat protein (input ligand: FMN 200 uM) [nM] | apparent KD of MS2 coat protein [1] [nM] | apparent KD of MS2 coat protein (input ligand: none) [nM] | apparent KD of MS2 coat protein [2] [nM] | apparent KD of MS2 coat protein [3] [nM] | apparent KD of MS2 coat protein [4] [nM]
ACAUGAGGAUCACCCAUGUGAAAACAAUGGCUGACUUUGAGAUAGGAUAUUGGUGCAUAUCAAACCAAGAAGGGUCAUUACUGG [Deportation 92 - Jieux - Exclusion NG 3] (Eterna round: R96, puzzle: Exclusion NG 3) | 37.5 | 32.8 | 48.2 |  |  | 
GGCAUGCAAGGAUAUACUUGAAGUGAUGUUCGAUAAAGUCUACUUGAGGAUCACCCAAGUAGAAGGUGCAUGCC [Exclusion 2 (Mod5.1 JL EX2 4.74 Vienna UCT mod of Mamaed)] (Eterna round: R97, puzzle: Exclusion 2) | 108 |  | 198 |  |  | 
ACAUGUGUUGUAGGAUAUAGGAUACAUGAGGAUCACCCAUGUGGAUUCAUGUCAAUGGAAACGUCCUAGAAGGACGACAACAUG [Ex NG2 #22] (Eterna round: R96, puzzle: Exclusion NG 2) | 59.5 | 42.7 | 65 |  |  | 
CUUUCGUCUGUGGGUGGUGACAUGAGGAUCACCCAUGUUUUGCUCGUCUUGUCCCGGGCCCGGCGCCCGGGCCCGGG [-38.7, -62.5, A 8%] (Eterna round: R97, puzzle: Sensor, turn-off variant 1) | 1210 |  | 1340 |  |  | 
GGGCCCGGAGGAUAUACAAUGGGCCCGGGAAACCGGGUUUUACAUGAGGAUCACCCAUGUAGAAGGCCGGGCCC [-42.8, -38.99 kcal A 24%, 5a,0] (Eterna round: R97, puzzle: Exclusion 2) | 15.6 |  | 14.6 |  |  | 
UUUAUGUCAGGAUAUGAGUAGUAGAACAAUAGUACUACUACUCAGAAGGGACAUGAGGAUCACCCAUGUGCCUC [Fiskers Ex 4 Super stable 44 mod 22] (puzzle: Exclusion 4) |  |  |  | 33.6 |  | 
CUGAGCAGACGGAGAUCCAACAUGAGGAUCACCCAUGUCUCAAAAGCUUUUUGCUCAUCUUAUCCUCCUCUGUUCUC [Edcesobi] (puzzle: Sensor v3, turn-off variant 1) |  |  |  | 336 | 20.5 | 17.9
GGAUCUACUGAGGAUAUUACAUCACCCGACUGAUAAGAAGGCAGAACAUGAGGAUCACCCAUGUGGGUAGCCAA [Polaris4] (Eterna round: R97, puzzle: Exclusion 6) | 25.7 |  | 21.3 |  |  | 
CGGGCCCGGGCAGGAUAUGCGGCGGCCCGGGCCGGUGGGCCCGGGCCGACAUGAGGAUCACCCAUGUAGAAGGGCCCGGGCCCG [low energy, MS2 in another position, A 14%] (Eterna round: R96, puzzle: Exclusion NG 2) | 15.7 | 10.7 | 16.1 |  |  | 
GAGGACUGAGGAUAUGCGUUGGUACCUCGUAGUAAGCAAAGACAUGAGGAUCACCCAUGUAGAAGGCGGAAAAG [Xegeinenxe] (puzzle: Exclusion 2) |  |  |  | 58.6 | 150 | 52.6
ACUGGAGCAGGAUAUACAUUCGUGCUUCGGCACGUAAGAUCACAUGAGGAUCACCCAUGUAGAAGGGCUCCAGU [E2/5-D1] (Eterna round: R97, puzzle: Exclusion 2) | 970 |  | 122 |  |  | 
UUCUGGACAGGAUAUGUACUUGAGCACUUGAGGAUCACCCAAGUCUUCAAGUACUCAGGCACAGAAGGGUUAAUUU [jl-ex5.4.66 ViennaUCT mod] (Eterna round: R97, puzzle: Exclusion 5) | 58.9 |  | 25.4 |  |  | 
CGGUGUAACGUAGGAUAUCAUCGCAACUGACGUUGAGAAGGACGACAUGAGGAUCACCCAUGUGAUUUCUCAAUAUUAUACAUC [Prohibition 85 - Jieux - Exclusion NG 1] (Eterna round: R96, puzzle: Exclusion NG 1) | 69.6 | 20.4 | 19.6 |  |  | 
CCAGCGUAUGUGAGGAUAUGCUGGUCCUUGGAUCAGCAGAAGGCACAUGAGGAUCACCCAUGUGAGAGCGUUGG [JL bmx4 3.37] (puzzle: Brourd's mod of Exclusion 4) |  |  |  | 21.4 |  | 
GCAUUUGUAGGAUAUACAUGAGGAUCACCCAUGUCGAGACGUGCAAGGCUUCCCAACUGUAGAAGGACGCGGCC [Eternabot (L1) Solution 61] (Eterna round: R97, puzzle: Exclusion 3) | 30.8 |  | 27.4 |  |  | 
AGGUAACAUGAGGAUCACCCAUGUCAGGAUAUCAUGAAGAUUAGAUUAGAGGAGAGGUUGAGAAGGGACUAUAU [Excluse me! 16 - Jieux - Exclusion 1] (puzzle: Exclusion 1) |  |  |  | 45.4 |  | 
GUGGGUUACAUGAGGAUCACCCAUGUAUAGUGGGAAAAAAUAUAGGAUAUAAUAUAAAAAUUAUAUUAGAAGGAUAGAGACUAG [AK ExNG3-1] (Eterna round: R96, puzzle: Exclusion NG 3) | 419 | 216 | 418 |  |  | 
UAAAAGGUAGGAUAUACGAAAAAAAAGGGUAGAAAAAAAACACAUGAGGAUCACCCAUGUAGAAGGACCAAAAA [salish99_ex2_r3_049] (puzzle: Exclusion 2) |  |  |  | 38.4 | 137 | 38
GGUACUAACACGAGAGUGUUAGUACUAUAAGCUUGUGUUACAUGAGGAUCACCCAUGUCCUCAUAGGCUCGUCUUAU [Mat - Sensor v3 - Turn-off var 2 - D80] (puzzle: Sensor v3, turn-off variant 2) |  |  |  | 25.8 | 209 | 231
AAUGGUAAAGUCAGGAUAUACGUAAGUCGUUCUAGGUAGAAGGGACAUGAGGAUCACCCAUGUAUGAUAGUAAA [Ex4 #33] (Eterna round: R97, puzzle: Brourd's mod of Exclusion 4) | 25.4 |  | 44.6 |  |  | 
AGCGAAUAGACAGGAUAUGAGAAUAGAUAGAGCUCAGAAGGGUCACAUGAGGAUCACCCAUGUGAAGUCUUGAGGCUGCGUGGU [Prohibition 18 - Jieux - Exclusion NG 1] (Eterna round: R96, puzzle: Exclusion NG 1) | 13.1 | 13.4 | 16.1 |  |  | 
UUUAUAUAGUAAGGAUAUGUAUUAUUUUUGUCAACAGAAGGUACUGACAUGAGGAUCACCCAUGUUUUAGUGUGGGCAUGUAGU [JMF's solution 99] (Eterna round: R96, puzzle: Exclusion NG 1) |  | 177 |  |  |  | 
GCGUAGUAUGUAGGAUAUCGGUCAGUUUCUGAUCGAGAAGGACAUGAGGAUCACCCAUGUAAAACGCCCGCUUUGUGGGUACGC [JL ENG1 3.59] (Eterna round: R96, puzzle: Exclusion NG 1) | 55.4 | 17.6 | 22.4 |  |  | 
UGAGCAUCAGGAUAUACAAGGCGACCGUGAGGUCGAAGGUUACAUGAGGAUCACCCAUGUAGAAGGGAUGUUCU [jl-ex2-4.11] (Eterna round: R97, puzzle: Exclusion 2) | 49.4 |  | 25.4 |  |  | 
GAAUAGGCAGGAUAUACAUGAGGAUCACCCAUGUGCCUGCGAAAGGUACGUUCGAAAGGUAGAAGGGCCUAAAC [ChP 13.04.2015 #6] (puzzle: Exclusion 3) |  |  |  | 12.2 |  | 
